Results on two molecules are retold here after patent US20030027252A1 (TULARIK, published 2003).

Where no end group is shown, it is not given here.

In assay [1] the target is T1, Human TGR342 (human, UniProt Q969V1 1-340).
T1 construct: Full-length cDNA in pEF6-V5 (Invitrogen), transiently expressed in HEK293 or CHO cells; also called MCHR2; MCHR-2
In words: [125I]-MCH binding to membranes of HEK293 cells transiently transfected with pEF6/V5-TGR342; specific binding = total minus mock-transfected membranes.

The target of assay [2] is T1, Human TGR342. As to the kind of experiment: cell-based or functional assay.

T1 sequence (Q969V1 whole entry): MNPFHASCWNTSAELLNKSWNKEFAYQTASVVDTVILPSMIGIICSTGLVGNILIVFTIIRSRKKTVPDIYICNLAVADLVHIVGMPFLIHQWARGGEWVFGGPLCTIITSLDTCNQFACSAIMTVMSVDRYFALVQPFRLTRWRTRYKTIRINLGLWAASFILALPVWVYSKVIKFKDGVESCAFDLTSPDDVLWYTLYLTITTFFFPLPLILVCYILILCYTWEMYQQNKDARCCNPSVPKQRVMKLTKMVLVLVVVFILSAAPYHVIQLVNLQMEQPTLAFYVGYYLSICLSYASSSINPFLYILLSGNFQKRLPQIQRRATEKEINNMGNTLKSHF

B1: [^125I]-MCH (peptide, UniProt P20382 147-165, looked up)
peptide: DFDMLRCMLGRVYRPCWQV
modifications: ends and bridges not checked; also: 125I label, labelled residue not given here
notes: mature
On to B1, for which the Kd (in general, a measure of binding affinity in units of concentration) in the assay with Human TGR342 [1] stood at 9.6 nM.

B2: melanin-concentrating hormone (MCH) (peptide, UniProt P20382 147-165, looked up)
peptide: DFDMLRCMLGRVYRPCWQV
modifications: ends and bridges not checked; cysteine pairing not given here
For the molecule B2, in the assay with Human TGR342 [2], the “EC50, aequorin luminescence assay (intracellular calcium mobilization), transfected HEK293 cells” value turned out to be 2 nM.
